In patent US20060039859A1:
Square brackets hold non-standard residues; d marks the D form. Ends that are not written are not given here.

Molecular target: Aβ1-40 fibrils (Homo sapiens (Human)) (UniProt P05067)
Experiment: saturation radioligand binding to Aβ fibrils in PBS, RT 90 min, Centricon 100 kDa filtration

Aβ1-40 fibrils (Homo sapiens (Human)), sequence (P05067 672-711 limits assumed): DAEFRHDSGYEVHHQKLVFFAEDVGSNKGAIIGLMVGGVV

- Kd: 0.352 µM
B1: 99mTc-peptide (technetium-99m-labeled BBB permeant Aβ-targeted peptide KKLVFFAεKGC) (peptide)
peptide: [dK][dK][dL][dV][dF][dF][dA]KG[dC]
modifications: not fully specified (residue 8); printed as KKLVFFAεKGC; also: 99mTc chelated by εKGC (N3S core)
